Results on 17 sequences are retold here after a protein production outcome set (Wang et al. 2014).

The series in a line: label from the status in PepcDB records.

Take “MKNILPLMWVIILMFVISQGVSAKGKKEIPKSEYGSYIVIMDLNPAIAYEGDIKGFKATKPGKNKKINPKSANVRKYTSMLSKTHDAALAKANVKSKDKVHDYGIALNGFSAKMTHEQAVALSSQDGVAKVMPDVLRQKMTDNSPSFLDLGGPAGPWLKGYDGEGIVIGVIDTGIWPEHPSFTDDGSYSTPPILLDDSRPNCEFGNTGHRPDDVAFSCNNKLIGARQMLDTYRLIVGATSDEFDSARDEDGHGTHTSSTSGGNANVPANMLGNDYGLISGIAPRAHIVMYKGLGDLGGFGSDLAAAIDQAVADGVDVINYSIGSSSFAIGPDDVAFLFAENAGVFVATSNGNSGPAPATTGSPASTPWVTSVGASTQNRTYQGSASSVGEWEFFGASITAGTAELALIDSAEAGSELCIPGVLDPVAVAGKIVLCLRGAIARVDKSKAVNIAGGAGMILYNANDGESQVTDSHWVPSVHINNTDGLVIKGYISNDASTAVAQIMGGTYTEIDAPSMAGFSSRGPNLLSGDIIKPDVTAPGVNIIAGQTPASEGRGELFQMISGTSMSSPHVAGLFAMIKQAHPNWSPSTAKSALMTTAYQDVMKEDEATPADAFDMGAGHVNPGGKANKGSIFEPGLAYQAGLFEYAAYSCGAELGIFSPGTCGFLESLGIPTDPANLNLPSIGIANVIGSKTVYRSVTGVAKDSGWRTYSVDVDAPAGYEVSVLPASIKLKSGMSATYAVTITNTASPAGEWAHGSITWRDSNDHYSVYSPIAVKGALFEAPANITGSSETGSASIDVTFGYTGDYTASGYGLTAATVDIDSVVQDPDQIFDPGDTFSNAHAIVVSGAAYLRIAIPGVADPNADLDIFLLDSVGNIVGVSANGGTDELIEMELPGDDTYTLWVHGWSAPGGSTDYELYSWVVPMASGSLTVASAPSSATLGATETIGVDWTGATNGKWHFGVIGHSDAGGLIGATLVEVDNR”: the protein production entry is listed as “failed”.
The result for “MKNKFIFITVVSILLIAAGIFTTIAMANANSVVVKAEVLNVRSGPGLAYDVTSQARKNEVLRVVGEENQWYKVQLDNGNSGWVASWLVENTDVSAASNSIAIVSSDGGLNVREKPSTSSTSLGLLNNGDQVTVTSQQNGWAQIQYNGKSAWVSSQYLTIRESVTKVDESELQTVTIRDDSTNIRNKPGRDGAVIEKANSGQGFAIQGVQGDWYKIRTTSGEEGYVANWVVDVSDKGQTSSPRSKTTKLSEATIVIDPGHGGNDPGAKGANGTIEKEMTLKTAKKLKEKLESRGAKVILTRNSDKYVSLKSRTNVAAENKADVFISIHFDSLEDSSKGVSGQTTYYYDNSDKSLAESINTTLGNDLPTTNRGSRVGDYYVVRENSQPAVLLELGYLSSAKDERNINSASYRSQIADSVTDGLSNYFSN” reads “failed”.
The result for “MKNKSYYFLTIIRYAVYLLIGMCAVFYGELKNTEMYYFIVFFLMYIIVTQFRIYYLRNRKYVSVSMVVDLVLVCFMYSYVRNFSFLFLFISVLDSSIMLSKTQAYASGIICSVVIIIQNVKIPFSLKAGTNLINILFSILLIFTLVFIGDSFREEQKRKIEAQGLYDRLRESEEKLRGAYEKLERYSETVEELSILRERNRISREIHDSVGHTLSAVLMQLQALLYLIKSDKEESLKTVEEMTGFVRGGIENVRRTVRELKPTDFDRFEGVFAIEEMIRKYKKLTSADIRFILSKEKRSLSSDESFISYRVVQEALNNAIRHGKASLVEVSMQFNQDRLYIRIKDNGVGTDGIKKGFGMTGMEERVKKLGGNIEFYSERDKGFEVTVNLPKSSEEKNSIINY” reads “failed”; that for “MKNKTYYLSIIFTSLVCLFLFTKALGFILWINGAPIDKWVAWVGLFAIPIFIYYSFPGRSLKKTQKIVTIVIIIVQIIWLKWAINQSKYYVYVNSNNILPSPYIIQETPNSNTPISLGQRLLTNYTFYKSIHSYLYVRENVTKSDRGIVDWIKHFDSEIKEEEDDGRIYIETYKGKLFFK”, “failed”; that for “MKNLKRRVAVVTALALVAALTYVLWPRSESVHVTAYFPRTVGIYPGSDVRVLGVRIGEVEKITPEGDRVRVELKYDEGRRVPADSKAAIINSSVVSDRYVQLLPVYRKGPVLRNGAVIPESRTAVPVELDRVFGSLHTTADALGPQGANKDGSLSRLLGVSADNLDGQGENLNRTVEDLSQAVTTLSDGRKDLFGTVRNLQVFTAALSADDKSVRSFNTGLAEVAGQLAGERKDLADALKNLGTALGDVSAFVKNNKRSLNSNVKGLSKVTKVLVTQRAALAELLEVAPTGLSNLNNAYNPSAGTLDTRNNAQQAQDPAALMCSVLKTTGDEGGKNPDCKELKKLFDSLPKVPQGSAVTGTVDRTLGGILGASA”, “failed”.
To “MKNLTSIRPNTSRPARLAALKQSFQDWNNTSDVMARLARRLSTTLSLEAQLSILAEEMTDMVPFDSLNYRHRIARQDFIFSTGMGGPHRCEYRLSLEGHQYGTLTLHRRQRFSEEELTGIEMMLSGAICHIRNACQFIAIEQTALTDSLTGIGNKRALDEALQRASAMADRHGAPWSLILCDLDHFKLINDNHGHVVGDHILARTAEKLEQALRNSDTVYRFGGEEFAILLPHTNEQEARDVADRIRGAIESIRVDGGETPLTVTASCGVAMHLTDEQPEQWLARADEALYRAKAAGRNCTRVFASIS” belongs “failed”; to “MKNNDLTTYGEYLEKLSPKHGREKVFNDFLQIVVCCLSMGRKEELYFKTIKPYDKTELDLFSQAFAALVMQMDRQPLVDPFGDYFQEFLSNAQNGQFFTPFGVCELMNQLITAPKVSDQPKQGDRRVLDPACGSGRLLLSAAQKDRALTFVGIDISYTCCLMTIINLCLNSLNGEVLHMNALTDQYWHRWLIIVDSVTKIPTVYEVEAGIINQPPACADDLKPLPVTGIIQPVKNMIPANFVRYTPKCLEHHHHHH”, “failed”.
“MKNNPLISIYMPTWNRQQLAIRAIKSVLRQDYSNWEMIIVDDCSTSWEQLQQYVTALNDPRITYIHNDINSGACAVRNQAIMLAQGEYITGIDDDDEWTPNRLSVFLAHKQQLVTHAFLYANDYVCQGEVYSQPASLPLYPKSPYSRRLFYKRNIIGNQVFTWAWRFKECLFDTELKAAQDYDIFLRMVVEYGEPWKVEEATQILHINHGEMQITSSPKKFSGYFHFYRKHKDKFDRASKKYQLFTLYQIRNKRMTWRTLLTLLSVRNGKRLADGIRGRLEHHHHHH”: the protein production entry is “not failed”.
For “MKNQLELIAESYDKGIDYGRRGISLYDDLPEYITNNPDYIIYKKTTESIEPSVYSGYKEIREYLSPTTNMKFIDLGCCLNLMFNGYDQWASTYHGVDISSKTIELLNEFSTNNKLHIGALICGSIHETPFDANYFDIGACIGVLEYYKKDFVEKALIEAHRIIKPGGKLVLDIPNIVSPACRGMILLEEHAGRTDQFDMLPLDFENMLCNYFEIEKVEKANAWAMFQYFLSCKK”, the protein production result is on record as “failed”.
To “MKNQLIDRLTRYTTIDTQSDPKSTTTPSTEKQWDLLHLLEKELQQLGLPTDLDENGYLFATLESNIDVDVPTVGFLAHVDTSPDFNASNVKPQIIENYDGKPYKLGNTKRVLDPKVFPELNSLVGHTLMVTDGTSLLGADDKAGIVEIMEAICYLQEHPEIKHGTIRIGFTPDEEIGRGPHKFDVDRFNADFAYTMDGSQYGELQYESFNAAEAVITCHGVNVHPGSAKNAMVNAIRLGEQFDSLLPDSEVPERTEGYEGFYHLMNFEGTVEKATLQYIIRDHDKKQFELRKKRILEIRDDINAHFENYPVKVDISDQYFNMAEKILPLPHIIDIPKRVFAKLDIPANTEPIRGGTDGSQLSFMGLPTPNIFTGCGNFHGPYEYASIDVMEKAVQVIIGIVEDIAENH” belongs “failed”; to “MKNRFAMMLMALLPVLVACQAKDGSADTVQSAVPAPSAPPSSSTATTTPTTPPPESARPVEASRVPSGPKPVAGTDYVVIQDGQQFQPVSGKVEVVEVFGYICPACFQFQPQIALWKAGLASDVNFVYVPAVFGGPWDDYARAFYAAETLNLQEKTHQQLYKAIHVDRTLKGERGRDTVQDIANFYAKFGVNPEQFVNTMSSFGISAKVNRAKQFAKHSQVTGTPSLIINGKYLVKGRTYDDMLRIADHLIEGERKVLGK”, “failed”; to “MKNRRTRWYRSLALRLLFIFWALLSVTAASGYLLAVWNKPKAELKPLEPEIYQTLQPLLSDALTFHSLQPGRLIAGDYRVAAQLSVQGSEKLLMDEMLRVSHGSTLLRMLGQESPQQIPLDERLLMGPFELDGNKILVTKPLGIEEQVDRERLEAESTRARILTLMVGSGLLAVLLGIWLIRPIRRMILAMREVADGSATPELKRLPKRGDEIGELARALSQGAVDLATSRDAQRRLLSDVSHELRSPMARMQVALDLADCNEDDPNWQQLRRDTERLSVIIERILSLSRLENGLVDLNHESLDSGELVQQLINDMCYQHPEVRERLLRHGSNWPVIDTDPELLRLVLENIVRNALHYTEDNVELSCDDYGKGCHIRIRDHGPGVDESTISKLFVPFYRGDPARHHKAGVGLGLALSHRAAAVLGGELKAHNHSEGGLEVVLDLPKSQPEQKE”, “failed”.
“MKNRSLTLRLISVLCLTALFVWLGSTLVAWWQVRHDVNKVFDAQQVLFAERLANSDLSTILLESSTTLNKNSQSVLKKSYDDDALAFAIFSKTGKLLFSDGRNGKDFIFNYKTGFYNANIYDDDDKWRIFWRMAANGELVIAVGQELDYREDLIEEMILGQMWIWFASLPILIIVLGWLIHKELRPIKRLSQEVQTRKSGDVSLLNTEGLPVEILPLVKNLNQFFDRTSAMLQRERRFTSDAAHELRSPLAALRIQIEVAQLAGDDVALREQALLHLTQGIDRASQLIEQLLTLSRLDNLQALETLQLLDWEAIVQSLISERYFVAEKRKITLVFEKESEPKQKQGQSILVSLMLRNLLDNAIKYCPEDTIVSVKISSSQIIIEDNGGGVEPEDLKKLGQRFYRPAGQNEKGSGLGLSIVMRIAELHGFKVRLENVVKEGRRIGLKAIISL”: the protein production entry was “failed”.
Turning to “MKNRTKSRWKKIVLGIGLFLAVLVIGLTIFIKNSTYQATDSALKISQSATQEKNYDYYTNGQKNDTALIFYPGALVAPASYSEWAQEVATKGYDVYVVHFPLNLAVLAPNAAEQIIKDHPQQNFVLAGHSLGGVMASRFVAENEQRIKGMIYLASYPDEKGALNKKNLPVLSITATNDGVLNWTSYQKAKQFLPKDTQYVSIEGGNHAGFGNYGVQKGDSKATISNEQQQTEISQLIVAWLQSRPNK”, the protein production result was “failed”.
With “MKNSFLCVGSFLLAASFFTSCTEDKDWSGGLKNSDLVFQTYLPTEGAKGTELSIRGNNFGEDISQVQVWVNEKEAEVISVTSTRIMARVAEASGSGVVKVRVGEVVYSYPDLFSYGYIRNVYTVAGNGQGTTVDGAYLQASVQWPIVMVYDKWDDAILFLQDEGEHRIRRMKDGKIETLCSTKSLVNNARSICFSLDGDTLFIGNDNANNYVANPVAVGMVTRKGGFKDLKSYIPSEKLAQPHINGIAVNPVDGSLFTYHWGRHVFRYNKATETCEYVITRDQFNELVVGLFPDADGNMQNIGGDGGYGGLAFSPDGKTLYWNGRDPYQGILKADYDLVTKKCTNLTRFAGNGVWGIIDGQGVSSRMDQPNQIAVDAEGNLLVTTVYGRTVRKITPEGYVSTYAGIGYQTGYVDGLAAEAKFNKPYGIAIDAQGNVYVGDCENWRIRVIKEE”, the protein production entry is “failed”.
The result for “MKNYMKLIFGLGLIALVGYWPAAKTPKRVNSLFLQNVEALAGSEHVTNLGCLGDGSVDCPINHIKVEYVVQGFSLGE” reads “failed”; that for “MKPADLTNADRIALELGHAGRNAIPYLDDDRNADRPFTLNTYRPYGYTPDRPVVVVQHGVLRNGADYRDFWIPAADRHKLLIVAPTFSDEIWPGVESYNNGRAFTAAGNPRHVDGWTYALVARVLANIRAAEIADCEQVYLFGHSAGGQFVHRLMSSQPHAPFHAVTAANPGWYTLPTFEHRFPEGLDGVGLTEDHLARLLAYPMTILAGDQDIATDDPNLPSEPAALRQGPHRYARARHYYEAGQRAAAQRGLPFGWQLQVVPGIGHDGQAMSQVCASLWFDGRMPDAAELARLAGSQSA”, “not failed”.
